Source: publication PMC2894447
One block for each molecule: values may come before it.

What was measured:
[1] = biological target: Rabbit skeletal muscle actin, monomeric (G-actin), 100% pyrene labeled (rabbit) (UniProt P68135); experiment: other fluorescence titration
[2] = biological target: APC-B-ΔN4; experiment: SEC + other: sucrose gradient sedimentation velocity

Kd [1]: 17.3 nM
Molecule: APC-B, the C-terminal Basic domain of adenomatous polyposis coli protein (domain or fragment)

stoichiometry N [2]: 1.97
B1: APC-B-ΔN4 (domain or fragment)
chain: ASTKSSGSGKMSYTSPGRQMSQQNLTKQTGLSKNASSIPRSESASKGLNQMNNGNGANKKVELSRMSSTKSSGSESDRSERPVLVRQSTFIKEAPSPTLRRKLEESASFESLSPSSRPASPTRSQAQTPVLSPSLPDMSLSTHSSVQAGGWRKLPPNLSPTIEYNDGRPAKRHDIARSHSESPSRLPINRSGTWKREHSKHSSSLPRVSTWRRTGSSSSILSASSESSEKAKSEDEKHVNSISGTKQSKENQVSAKGTWRKIKENEFSPTNSTSQTVSSGATNGAESKTLIYQMAPAVSKTEDVWVRIEDCPINNPRSGRS
modifications: not checked
